In the domain aggregation screens of Martell et al. (2025):

Assay: soluble fraction after stress (log2 fold change); higher = more stays soluble; pooled small domains, quantitative proteomics
Conditions: stress: 75 degC
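Also: 20 min heating vs room temperature control held 20 min.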

Sequence | soluble fraction (log2)
HMSFNSQENKSVLWQFLLENNFFIGLSDKKFNKVKDIFEKNIQSISIVNDSISNKNKILIQKMMEELELL | -3.38
HMSFPDTYFKGNKVIGLSYNDLKKFLNNAGYSKFDEEVEEWGEKRVSIEDDMVDFYLEDDKVVSI | -0.361
HMSFPFLMPNLEGLQLDQVRVILEENGLEIGQENYQPDSKFGPGTIINHQPSVDTVVQTGQKVNLQISGTD | 0.126
HMSFSSLSNDILSEIQKDNNITYDELSEKLQKDRATIYRNMKKLVENGLLKRVGGRKSGHWEIIE | -0.102
HMSFVDFYGLFTTELQRLAELPVTADELIKNTGLHKSQLTDWLKRAEEDGVVKKLNRPVRYQVEKK | -1.66
HMSGAQIQQLLESRAPQPGMNPDMIVRRKTYMNNVFNALKGALLRVANGSSPEEVKTEVDAAIQVDPDKL | 0.353
HMSGEVLTAVVPETASGERLDKVLPQIFPPYSRSQLQTWLKEGRVTLDREIPAARLAVIGGETLRLEVPSL | -0.112
HMSGFFVYPNPAKSNIIHFPNKKSFYIYDTSGRLLIEGKGKDFIDVSTLDRGVYLLKTFENDIVKIII | -1.1
HMSGGIVRLAVKPWGEVFVDGASRGITPPLKQLTLDAGVHRIEIRNPAGPSWTKDVDVVAGQPTTVSHRF | -0.494
HMSGITDIITDGKATSRPVVVTDGGHIRVLSPYTSFAIYTLGGMSLPTESRLEPGIYIVVVDSNAVKVAV | -1.59
HMSGLGELTPRELEVLELMAQGLSNSQIAGRLFLSGAAVAKHVSSIFSKLGFEPGDENRRVRAILAFLNR | -1.41
HMSGLLTTSKLAQKHKMKTEPMLEKLTAAGYLEWRDDKHSLTEQGKKAGGQFKTGRFGAYFLWPEDLV | -0.116
HMSGPDGLTEREIEVLRLLASGLSNRAIGERLYISTNTAANHVRSILLKTGAANRTQAAMYAADHEML | -1.66
HMSGPFTELTPREREILSHLAEGQSNKVIARHLQISDGTVKLHVKAILRKLEVHSRVEAAVMAVEHGV | -2.18
HMSGPMVPNVVGLSEEMARALLSDYSITIKHAHDGVIPKDRVASQLPLATTHAKVGSSVVLTIS | -0.557
HMSGQLTEEQVKQIVTTAVKNSSGSTLTAAEVSRIVSTAVANNLTADQVKTVVNNALAGITTDISTLKA | 0.124
HMSGSFDVTLDYLNSLRNLYPAIDVEQEFRKMYAWLDSNPKNRKTERGIKRFITGWLGRAQDKAP | -1.31
HMSGSLLQTRQRLQALTDLGHYKGDLAAAWGPEAIEALKRAQAALGITVDGKWGPETEDAIQVALQAQT | -0.00363
HMSGSPREQAESEYRKAIAAVNQGRVSEATESLRAALRLDAFQVAARQLLVKLLLEAKNQDEAIQVLR | -0.986
HMSGTMYATAEVNVRSTYSSDGTIYGTLSKGTAVEITGTTDNGWVRVKYNGTTAYVYADYLSWKAP | -2.41
HMSGYAIVNNQPGRTLNLRNSPSQSNNIIGQIPSGTRLQLISRGETWSEVIFQTTRGFVMSSFLRFET | -2.38
HMSHGNAALTPRQRLRLARLVVDDQWSVSAAAEFFRVSYPTAAKWARRYVELGPAGMADRSS | -1.62
HMSHRVGDVVELTAVRMNDQGVFLDAGTGNTSDDILLHKHQMTSPVSVGDKVKVQLYLDAKNRITASMKL | -0.36
HMSIEIIEITSNSSPKNLSEIIDIDATQIVADLMGLGIMKAIDTPLENSEIEQLLEKYNLIAEFVE | -2.76
HMSILEIFGRNVQKYRKEQRLSQEKLAEYAGLHRTYIGMIERAEKNITLVNIEKIAKALNINLTKLLE | -4.25
HMSILTELDIGDKVEVVAGPFKGIQANITRIEPVRKEVTVILLDAPYQLPVTVDADYLKIIQKS | -1.63
HMSINISFEPADHLGKDVIFIRFPYDNEWIQRVRKLKGAKWSQSQRAWHVPDTEHYRTLFQLPQKI | -2.73
HMSIQDLMNSKDLSGFKVEMLSNEDIVKYKSMLQSSGFSESQAEQLALQRGLPTSELIKLRTRISDVAVT | 0.199

Sequence | soluble fraction (log2)
HMSIQELMNSKDLSSFKVEMLSDEDIAKYKGLLQNSGLTEAQAEQMALQRGLPSSELLKLKARLSGI | 0.118
HMSIQREIILEVIKNNRTHPTAEEIYILVTKKEPKISRSTVYRNINILVEKGIIEKITIATGPDRYDY | -1.53
HMSISDEDFAKLLDFVKEKWDAGELDNAEDIKAAISEGEKEFGVSLDESTRTTLASALQQLN | 0.274
HMSIYDAPIEDLKFSTRIFNSLKRADIHTVADLIAHSRDDLMKVRNLGATSLDELIEKLGTHGLQLADP | -0.412
HMSIYYQIYESLKKDLSNNLYKPGEKLPSENVLSKRFGVNRHTIRRSLQLLKNEGILFSKRGSGIIVHD | -3.45
HMSKDKEKRTREHVLGILKKYDKVMTDKAFTVFKKMIKDESILEMELIKLINFIGERKEIRSKDVLAVVTE | -0.504
HMSKEIQNILASLPSVDVLLKQIDPIYPHGKAKEATQQVVARLRESVVDGTRKTVIDQKEVIAMIHKQLEE | -0.293
HMSKETTYEVLSLKGDEWQTDTIYSDRDEAIEAARNLHGDPHIDGAKVISEVYDDKTGGSKETTIFNT | 0.535
HMSKHAIQNELEKIEGIGKQTADSLLKEFKSVKKLRTLPLSEIEKVIGKSKATIVFEALHKDK | 0.00931
HMSKHATLLEALADLSVKLKPHSQLPSERALSEEYGVSRMTLRRAIDVLQARGYIYSVPSKGLFVSEP | -1.89
HMSKHATLLEALAELTVKLKPHTQLPSERQLSEDFGVSRMTLRRAIDVMQSRGYIYTVPSKGLYVSEP | -1.72
HMSKIRTFRVKTVAVDQAYQVLKDYSPIKISTESNAVIIDLDESKTPAEIAGYLEKNGIKVDNIEVIAESE | 0.962
HMSKISKENEQQVIQIVQTLLLNVQDKSLITTQILNEKINLAVSLDTKYKENLDRDYIIEELIRRYSVW | -2.93
HMSKKIVLPAAITVKKFSETLDMPLGTVISELMKNGILATINERIDFETASIIAQDLGYEVSEEV | -0.216
HMSKKQEQALQSREKLLDAATALFAEHGYRDTSVQAIGEKAGVSRGSIFWHFGSKEGLLWAVVERAFTA | 0.303
HMSKKTQKDEVVDLFLKTGNEPLHYKEISKKTGIIVHNVRRITGQNVVGKTDNPVFKRVSPGVYKLID | -0.72
HMSKLSVSSLSSPEVQNQLKAAGIDVNSRQYQVVMKDMMGALDGRAGYTTVSAIKNRMRQYNADGDY | 0.687
HMSKMVEMSQEKSREKVARVKIEIQKMLDRKERVTVSGLERATGFSNSFFYRNEEVNQAVKEAQLKQ | -0.138
HMSKNIRQQFLDVLPKTFDRNQYLETAKKLSINAKTAEGYIKKFVEANLLDHPKHNHYINLKKVEEVETK | -0.0919
HMSKNYYEILGVTPDVELSQLKAVYRRLVRKYHPDINPDGELIFKDITEAYEVLSDEKQRKQYDMINGF | -0.596
HMSKPILSFVDPEKDPSHYVKRYITEETYKDWFSEHFPDYTLYEGIGITQEEYRNIVNELTKP | -0.5
HMSKPIYSELLREIRSGDVKELTLIPQRREVLVEYSDGRKATVSILANDQQVLRTAESAGVPLTVK | -0.0278
HMSKPVFQTHSVRSADSATVFDVLQTLLAGTPDARIAIDPKTNAIVAWARPETQEVIAKSIMEMEG | 0.0746
HMSKQIEVPDVTDMTVSDAIDVLQDKGFVVSDEQKEVASSEIEEGRVVRTSPAVGSKRKDGTVVTLYVSI | 0.353
HMSKTEEIAYTTFVKYLENKDIEEVYLGNNAKIKVILKDGREMITDNPRTADFKKDLLLHDIKVVEKT | -0.0889
HMSKYGIAYSEVLEILKHIPIEDYNKIPRNEIELFETYADKDFTFNYDSSKTLEEQNVSNITKGIIIL | -0.56
HMSLEEQNGAKDRQVEAYELLLKAQRALDQEDTAGFQAAMKDLEPLSSQLDAQGQTLYHELLPFVS | -0.232
